From the supplement of paper PMC7125110
± gives the standard error. This sample holds only a part of the variants without activity.

B1: glmS ribozyme (parent)
chain: AUAAAAGCGCCAGAACUACAGAAAUGUAGUUGACGAGGAGGAGGUUUAUCGAAUUUUCGGCGGAUGCCUCCAAA

Legend:
Conditions in all cases: with glucosamine-6-phosphate
[1] = variants of: B1; test: self-cleavage kobs at 640 uM GlcN6P; higher = faster cleavage; RNA array
Summary of the method: (§1)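 Weighted Michaelis–Menten fits across concentrations supplied kcat and KM, based on kobs from one- or two-exponential decay fits to normalised per-tile medians. The data came from barcoded ribozyme variants transcribed in situ by E. coli RNA polymerase on sequenced MiSeq chips and tracked at 37 °C by a hybridised Cy3 probe. Glucosamine-6-phosphate (40 μM to 10 mM) in HEPES/KCl/Mg(OAc)2 buffer was flowed in.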

[2] = variants of: B1; test: self-cleavage kobs at 2500 uM GlcN6P; higher = faster cleavage; RNA array
Summary of the method: as §1

[3] = variants of: B1; test: self-cleavage kobs at 10000 uM GlcN6P; higher = faster cleavage; RNA array
Summary of the method: as §1

Variant | self-cleavage kobs at 640 uM GlcN6P [1] [s⁻¹] | self-cleavage kobs at 2500 uM GlcN6P [2] [s⁻¹] | self-cleavage kobs at 10000 uM GlcN6P [3] [s⁻¹]
A36U A39U U45C C58U | < 1e-05 | < 1e-05 | 
A33G G60C C68G | < 1e-05 |  | 
A36U U56A | < 1e-05 |  | < 1e-05
A14G G32C U45A C70G | < 1e-05 |  | 
A6U G29U A52C | < 1e-05 |  | 
C11A C16G A42U U56G C71U | < 1e-05 | < 1e-05 | 
A15U G41U G66U C70U | 4.78e-05 ± 1.4e-05 |  | 
G35A U46G C61G | < 1e-05 | < 1e-05 | < 1e-05
A3C U45A U65A | 0.00508 ± 0.0012 | 0.00657 ± 0.001 | 
C8U U54C U55G | < 1e-05 |  | 
A6G C16A G44U U45A | < 1e-05 | < 1e-05 | 
C11A A48U C70A | 9.74e-05 ± 2.9e-05 |  | 
A15C A33U G40A | < 1e-05 |  | 
A39U G40U C67A | 0.000118 ± 2.9e-05 | 0.000561 ± 0.00019 | 
A52G C58A G63C C68G | 0.00011 ± 4.4e-05 | 0.000102 ± 2.9e-05 | 
G9U A15C | < 1e-05 |  | < 1e-05
U30C U31C G59U C61G C70G | < 1e-05 |  | 
A12U G37A U56G | 0.00137 ± 0.00022 | 0.00379 ± 0.00089 | 
C10G A36C G60A | < 1e-05 |  | 
C8U C10U A14U G43A | < 1e-05 | < 1e-05 | 
G43A G44A C68U | 0.000159 ± 6.2e-05 |  | 
C16U U46A A52U | < 1e-05 |  | 

Variant | self-cleavage kobs at 640 uM GlcN6P [1] [s⁻¹] | self-cleavage kobs at 2500 uM GlcN6P [2] [s⁻¹] | self-cleavage kobs at 10000 uM GlcN6P [3] [s⁻¹]
C8U C10G C67G | 0.000675 ± 0.00032 |  | 
C8U U47C C67G | < 1e-05 |  | 
G38C U45C C70A | < 1e-05 | < 1e-05 | 
U31G U45C A53G | 0.000175 ± 3.2e-05 | 0.000528 ± 9.1e-05 | 
G21U U47G | 0.00247 ± 0.00049 |  | 
A36U U46C U49A C68G | < 1e-05 |  | 
U45G A53G G62A | < 1e-05 | < 1e-05 | 
G38U A52C A53C C68A C71U | 0.000617 ± 0.00024 |  | 
G13C U56A C58G C71U | 3.8e-05 ± 1.2e-05 | 6.28e-05 ± 1.9e-05 | 
U49G C61U C71A | < 1e-05 | < 1e-05 | < 1e-05
C11A G35A G63U A64C | < 1e-05 | < 1e-05 | 
G7C U56G C67U | < 1e-05 |  | 
C11U A36U G44C G62U | < 1e-05 |  | 
G29A G40C | 5.68e-05 ± 1.5e-05 | 0.000243 ± 4.7e-05 | 
A39U U56A U65G | 0.000165 ± 4.5e-05 |  | 0.00113 ± 0.00025
U31A A36U A48U U69C | < 1e-05 |  | 
C16G G41C G62A A64G | < 1e-05 | < 1e-05 | 
A14G A33U G44U U47C G63U | < 1e-05 | < 1e-05 | < 1e-05
U30C G63U C70G | 3.84e-05 ± 1.8e-05 |  | 
C8G A14U U49G A53U C61U | < 1e-05 |  | 
G13A C50U G62A | < 1e-05 |  | 
U45C U47G G51U | < 1e-05 |  | 

Variant | self-cleavage kobs at 640 uM GlcN6P [1] [s⁻¹] | self-cleavage kobs at 2500 uM GlcN6P [2] [s⁻¹] | self-cleavage kobs at 10000 uM GlcN6P [3] [s⁻¹]
G13C G29C G44U C50A G62C | < 1e-05 | < 1e-05 | < 1e-05
C8A C50G C58G G62A | 0.000111 ± 3.2e-05 | 0.000345 ± 8.6e-05 | 
C11G A12U G38C A42U | < 1e-05 | < 1e-05 | 
C11A G59A C61G C70A | 0.000163 ± 7.6e-05 |  | 
C11G G13C A15G G43U G63C | < 1e-05 | < 1e-05 | 
C11A U56A C70U C71A | 0.000256 ± 7.9e-05 |  | 
C19A A33U | 4.59e-05 ± 2.2e-05 | 0.000114 ± 2.6e-05 | 
A14C G32C C71U | 7.58e-05 ± 2.5e-05 | 0.000118 ± 2.6e-05 | 0.000332 ± 7.4e-05
A15C G29C G60U | < 1e-05 | < 1e-05 | < 1e-05
G29A A39G U54A | 0.00173 ± 0.00059 | 0.00457 ± 0.0012 | 
C16G A48G U56G G59A | < 1e-05 |  | 
G29C G43U U57G | < 1e-05 |  | 
G7A C11G A15C C50A U54C | < 1e-05 | < 1e-05 | 
C11G G13A C70G | 0.000406 ± 0.00015 | 6.69e-05 ± 3.1e-05 | 
C8A G32U U45G A48G C71A | < 1e-05 |  | 
C10A C16A G51U A64C | < 1e-05 |  | 
A39U G63C C71G | < 1e-05 | < 1e-05 | 
U46G C50U A53C A64U | < 1e-05 | < 1e-05 | 
C16G U31G U54G | 0.000146 ± 3.7e-05 | 0.000327 ± 5.9e-05 | 
U30A G41U G43U U54C | < 1e-05 |  | 
A6U G37C G40A | < 1e-05 | < 1e-05 | 
